From publication PMC3844103 (Biochemistry, 2013) come the findings set out here.

Non-standard residues stand in square brackets, D forms with d. pY = N[C@@H](Cc1ccc(OP(=O)(O)O)cc1)C(=O)O

This assay concerns the target T1, C-terminal SH2 (cSH2) domain of PLC-γ1 (rat, UniProt P10686 664-766).
T1 sequence (looked up): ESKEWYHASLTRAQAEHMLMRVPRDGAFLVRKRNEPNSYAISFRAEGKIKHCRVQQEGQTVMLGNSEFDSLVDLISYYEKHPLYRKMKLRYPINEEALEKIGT
Put plainly: crystal structure.

B1: pTyr783 peptide of PLC-γ1 (peptide)
peptide: Ac-DYGALYEGRNPGF[pY]VEAN-NH2
SMILES: CC(=O)N[C@@H](CC(=O)O)C(=O)N[C@@H](Cc1ccc(O)cc1)C(=O)NCC(=O)N[C@@H](C)C(=O)N[C@@H](CC(C)C)C(=O)N[C@@H](Cc1ccc(O)cc1)C(=O)N[C@@H](CCC(=O)O)C(=O)NCC(=O)N[C@@H](CCCNC(=N)N)C(=O)N[C@@H](CC(N)=O)C(=O)N1CCC[C@H]1C(=O)NCC(=O)N[C@@H](Cc1ccccc1)C(=O)N[C@@H](Cc1ccc(OP(=O)(O)O)cc1)C(=O)N[C@H](C(=O)N[C@@H](CCC(=O)O)C(=O)N[C@@H](C)C(=O)N[C@@H](CC(N)=O)C(N)=O)C(C)C
As to B1, the binding result is “binds”.
